One may read the EC50 as the midpoint of the concentration-response curve. Low values mean greater potency, high ones weaker potency. A word on the koff: it is the first-order rate constant of dissociation. A word on the IC50: it is the concentration at which inhibition is half-maximal.

In experiment [1] the target is T1, human CD70, full length, on CHO cells (CHO-human CD70-B07) (human, UniProt P32970 1-193).
T1 construct: whole, on cells; Stably transfected CHO cells; also called CHO-CD70
T1 sequence (looked up): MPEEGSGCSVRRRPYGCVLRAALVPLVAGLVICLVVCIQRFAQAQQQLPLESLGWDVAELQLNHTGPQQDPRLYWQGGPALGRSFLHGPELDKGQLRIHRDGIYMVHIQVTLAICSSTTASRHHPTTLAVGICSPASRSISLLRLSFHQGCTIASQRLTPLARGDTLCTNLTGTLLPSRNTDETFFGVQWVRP
Description: flow cytometry, Fab on CHO-human CD70 cells. The procedure:
The blank control cell CHO and stably-transfected cell line CHO-CD70 were prepared and added at 5×10⁴ cells/well into a 96-well plate respectively. 50 μL of Fab antibodies with different dilution gradients were added into each well and incubated at 4° C. for 60 minutes. The centrifuge was performed to discard the supernatant. The plate was washed with 0.5% BSA/PBS and added with 50 μL of a secondary antibody solution (Anti-human IgG F (ab′) 2-AF647, Jackson Immuno Research) and incubated at 4° C. for 45 minutes. The excess secondary antibody was washed off with 0.5% BSA. The PBS solution was added to resuspend cells for flow cytometry. The data was collected.

In experiment [2] the target is T2, recombinant trimeric protein of human CD70 extracellular region (human CD70 mIgG Fc (knob) / mouse IgG Fc … (human, UniProt P01863 98-330 = IgG part)).
T2 construct: The ELISA and Octet texts say only 'recombinant CD70 protein' / 'CM352 antigen'; also called recombinant human CD70 protein; recombinant CD70 protein
T2 chain 1: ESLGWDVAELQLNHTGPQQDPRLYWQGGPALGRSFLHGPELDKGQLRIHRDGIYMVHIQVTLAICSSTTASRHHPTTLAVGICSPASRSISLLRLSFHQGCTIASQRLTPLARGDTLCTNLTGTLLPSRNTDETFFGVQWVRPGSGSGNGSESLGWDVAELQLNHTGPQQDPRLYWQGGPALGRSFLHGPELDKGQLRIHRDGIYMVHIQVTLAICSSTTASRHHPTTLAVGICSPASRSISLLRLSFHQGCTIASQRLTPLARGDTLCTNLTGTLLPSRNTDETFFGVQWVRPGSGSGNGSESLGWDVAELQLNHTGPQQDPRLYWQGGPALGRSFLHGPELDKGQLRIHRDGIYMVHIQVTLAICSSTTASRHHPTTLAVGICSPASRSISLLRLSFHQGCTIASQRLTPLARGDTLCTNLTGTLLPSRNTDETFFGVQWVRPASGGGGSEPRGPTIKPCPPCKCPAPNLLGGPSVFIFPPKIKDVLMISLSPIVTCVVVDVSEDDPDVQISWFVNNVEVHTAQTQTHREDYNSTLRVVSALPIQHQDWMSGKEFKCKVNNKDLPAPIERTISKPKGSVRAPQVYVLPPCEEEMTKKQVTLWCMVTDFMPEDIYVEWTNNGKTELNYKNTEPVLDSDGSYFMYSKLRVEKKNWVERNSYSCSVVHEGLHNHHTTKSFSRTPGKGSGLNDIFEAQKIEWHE
T2 chain 2: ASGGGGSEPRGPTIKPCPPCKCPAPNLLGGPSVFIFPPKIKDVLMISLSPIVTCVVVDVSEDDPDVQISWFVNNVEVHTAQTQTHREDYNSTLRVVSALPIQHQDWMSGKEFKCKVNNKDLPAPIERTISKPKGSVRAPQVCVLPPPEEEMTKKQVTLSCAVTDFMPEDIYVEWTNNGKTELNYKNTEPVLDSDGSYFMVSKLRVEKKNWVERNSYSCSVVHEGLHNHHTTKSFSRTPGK
Description: BLI (Octet), biotin antigen on SA probe, Fab in solution.

Experiment [3] concerns the target T2, recombinant trimeric protein of human …. Description: competition ELISA, Fab titrated, human CD27 coated, biotin-CD70. The procedure:
The next day, the plate was washed 3 times with PBS, added with 200 μL of 2% defatted dry milk/PBS, blocked at room temperature for 2 hours, and washed once with PBS, 50 μL of different dilution gradients of Fab antibodies were added and incubated at room temperature for 30 minutes. […] The plate was washed 3 times with PBST and PBS and dried by spinning. A secondary antibody solution Streptavidin-coupled horseradish peroxidase SA-HRP (BD bioscience, Cat. No: 6222697) was diluted with 0.5% BSA in a ratio of 1:8000. 100 μl of the diluent was added into each well and incubate at room temperature for 30 minutes. The plate was washed 3 times with PBST and PBS and dried by spinning. 100 μl of the color development solution (TMB solution, Sigma, Cat. No: T2885) was added into each well and protected from light at 37° C. for reaction. After the substrate developed moderately, 50 μl of 2M concentrated sulfuric acid solution was added into each well to terminate the reaction. The OD450 nm was determined by using an enzyme-linked detector within 30 minutes, and the data was collected.
Background: An ELISA detects its analyte on a solid surface through an enzyme-linked reagent.

Experiment [4] concerns the target T1, human CD70, full length, on CHO cells …. The experiment in a line: flow cytometry, chimeric IgG on CHO-human CD70 cells. Here is the method:
Different cells in logarithmic growth phase were taken, blocked with 3% BSA for 30 minutes, and plated to a 96-well U-plate at 5×10⁴ cells/100 μL. The centrifuge was performed at 1100 rpm for 3 minutes. The supernatant was discarded and the cells were gently tapped to be loosening. 50 μL of gradient diluted antibody was added (antibody concentration: from 30 μg/mL, 3-fold dilution for 5 gradients) per well, and incubated at 4° C. for 1 hour. After incubation, 180 μL of 0.5% BSA was added to each well for washing 3 times. 30 μL/well of secondary antibody AlexaFluro647 anti-human IgG (Jackson Immuno Research, Cat. No: 109-606-170) was added and incubated at 4° C. for 45 minutes. At the end of the incubation, each well was washed 3 times with 180 μL of 0.5% BSA and finally resuspended in 50 μL of PBS for iQue (Intellicyt, USA) assay.

Experiment [5] concerns the target T2, recombinant trimeric protein of human …. Description: competition ELISA, chimeric IgG titrated, CD27 coated, biotin-CD70, human pair. Here is the method:
The recombinant CD27 protein was coated at 1 μg/mL in a 96-well microtiter plate and incubated overnight at 4° C. The next day, the plate was washed 3 times with PBS, added with 200 μL of 2% defatted dry milk/PBS, blocked at room temperature for 2 hours, and washed once with PBS. The purified chimeric antibody was divided to 12 concentration gradients starting at 100 nM and diluted in a 1:3 gradient. […] of the antibody was added per well and incubated at room temperature for 30 minutes. […] The plate was washed 3 times with PBST and PBS and dried by spinning. A secondary antibody Streptavidin-coupled horseradish peroxidase SA-HRP (BD bioscience, cat. No: 6222697) was diluted with 0.5% BSA in a ratio of 1:8000. 100 μL of the diluent was added into each well and incubated at room temperature for 30 minutes. The plate was washed 3 times with PBST and PBS and dried by spinning. 100 μl of color development solution (TMB solution, Sigma, Cat. No: T2885) was added into each well and protected from light at 37° C. for reaction. After the substrate developed moderately, 50 μl of H₂SO₄ was added into each well to terminate the reaction. The OD450 nm was determined by using an enzyme-linked detector within 30 minutes, and the data was collected. The results were calculated by using Graph Pad Prism 5 software.

Numbering of substitutions follows the chain as printed.

B1: 2B12 Fab antibody (Fab, V domains shown)
VH: QVQLQQSGPGLVQPSQSLSITCTVSGFSLTTYAVHWVRQSPGKGLEWLGVIWSTGITDYNAAFISRLSISKDNSKSQVFFKMNSLQSDDIAIYYCARNPYYGNLNAMDYWGQGTSVTVSS
VL: DIVLTQSPASLAVSLGQRATISCRASKSVDTSGYSFMHWYQQKPGQPPKLLIYLASNLESGVPARFSGSGSGTDFTLNIHPVEEEDAATYYCQHSRELPLTFGAGTKLELK
notes: Purified Fab from the mouse Fab phage display library
Consider B1, for which the half-maximal effective concentration (EC50) in experiment [1] was 8.6 nM. Further, the koff in experiment [2] stood at 0.000125 s⁻¹. For the same molecule, the IC50 in experiment [3] worked out at 0.29 nM.

B2: 2B12 chimeric antibody (antibody, V domains shown)
VH: B1 VH
VL: B1 VL
In experiment [4], B2 gave an EC50 of 17.7 nM. Further, the 50% inhibitory concentration (IC50) in experiment [5] was determined as 0.11 nM.

B3: 14C12 chimeric antibody (antibody, V domains shown)
VH: EVQLQQSGPELVKPGASVKMSCKASGYTFTDYVIHWVKQKPGQGLEWIGYLHPYNDDTKYNEKFKGKATLTSDKSSSTAYMELSSLTSEDSAVYYCARRGYYDYAWFADWGQGTLVTVSA
VL: B1 VL with D30S, T31A, S35T, F36W, M37I, G45R, P47A, L100P, A104G, L110I
On to B3, for which, in experiment [4], the EC50 stood at 15 nM. Besides, the concentration for half-maximal inhibition (IC50) in experiment [5] turned out to be 0.1 nM.

B4: 14C12 Fab antibody (Fab, V domains shown)
VH: B3 VH
VL: B1 VL with D30S, T31A, S35T, F36W, M37I, G45R, P47A, L100P, A104G, L110I
notes: as for B1
For the molecule B4, it took 28 nM to reach a half-maximal effect in experiment [1] (EC50). For the same molecule, the off-rate constant (koff) in experiment [2] worked out at 0.000321 s⁻¹. The half-inhibitory concentration (IC50) in experiment [3] was 0.79 nM.

B5: 27A3 chimeric antibody (antibody, V domains shown)
VH: B1 VH with Q1E, Q6E, A62D, N83D, I90T, Y94F, P99H
VL: B1 VL with D30S, L100Y, A104G, L110I
As to B5, the midpoint of the response in experiment [4], the EC50, lay at 4.07 nM. Also, the IC50 in experiment [5] turned out to be 0.08 nM.

B6: 23A11 chimeric antibody (antibody, V domains shown)
VH: B1 VH with T54V, I56S, S87A, I90T, P99I, L104V, N105Y
VL: B1 VL with T31A, P44A, S69R, E85G, L110I
On to B6, for which the EC50 in experiment [4] worked out at 11.9 nM. In addition, in experiment [5], the IC50 came to 0.07 nM.

B7: 27A3 Fab antibody (Fab, V domains shown)
VH: B1 VH with Q1E, Q6E, A62D, N83D, I90T, Y94F, P99H
VL: B1 VL with D30S, L100Y, A104G, L110I
notes: as for B1
In the case of B7, a half-maximal effect in experiment [1] (EC50) was put at 12.4 nM. Moreover, in experiment [2], the koff amounted to 0.000172 s⁻¹. Moreover, the IC50 in experiment [3] worked out at 0.51 nM.

B8: 23A11 Fab antibody (Fab, V domains shown)
VH: B1 VH with T54V, I56S, S87A, I90T, P99I, L104V, N105Y
VL: B1 VL with T31A, P44A, S69R, E85G, L110I
notes: as for B1
Molecule B8 had a concentration giving a half-maximal response (EC50) in experiment [1] of 15.6 nM. The koff in experiment [2] stood at 0.000403 s⁻¹. Further, the IC50 in experiment [3] came to 0.5 nM.

B9: 32D1 Fab antibody (Fab, V domains shown)
VH: B3 VH with V18L, S84N
VL: B1 VL with R24K, D30S, T31A, S35T, F36W, P47A, L100P, A104G, L110I
notes: as for B1
In turn, B9 came in with an EC50 in experiment [1] of 8.1 nM. In addition, the off-rate (koff) in experiment [2] amounted to 0.00183 s⁻¹. The IC50 in experiment [3] stood at 2.26 nM.

B10: 32D1 chimeric antibody (antibody, V domains shown)
VH: B3 VH with V18L, S84N
VL: B1 VL with R24K, D30S, T31A, S35T, F36W, P47A, L100P, A104G, L110I
Molecule B10 showed a concentration for a half-maximal effect (EC50) in experiment [4] of 12.1 nM. The IC50 in experiment [5] was 0.1 nM.

B11: 3B2 Fab antibody (Fab, V domains shown)
VH: B1 VH with Q1E, Q5K, A33G, S87A, I90T, P99S, N105Y, A106V
VL: B1 VL with D30S, T31A, S35N
notes: as for B1
Turning to B11, in experiment [1], the concentration for a half-maximal effect (EC50) amounted to 14.2 nM. In experiment [2], the koff came to 0.000325 s⁻¹. Besides, in experiment [3], the IC50 was 0.32 nM.

B12: 12A1 chimeric antibody (antibody, V domains shown)
VH: B1 VH with N83D, I90T, Y94F, Y100H
VL: B1 VL with D30S, T31A, S35T, F36W, P47A, L100P, A104G, L110I
B12 had an EC50 in experiment [4] of 7.55 nM. The IC50 in experiment [5] was determined as 0.12 nM.

B13: 12A1 Fab antibody (Fab, V domains shown)
VH: B1 VH with N83D, I90T, Y94F, Y100H
VL: B1 VL with D30S, T31A, S35T, F36W, P47A, L100P, A104G, L110I
notes: as for B1
As to B13, the EC50 in experiment [1] stood at 17.7 nM. The koff in experiment [2] turned out to be 0.000317 s⁻¹. In experiment [3], the half-maximal inhibitory concentration (IC50) came to 1.88 nM.

Source of the values: patent US20240247072A1 (KEYMED BIOSCIENCES, published 2024).
